Measurements as given in US20090291088A1, “THERAPEUTIC COMBINATIONS OF ANTI-IGF-1R ANTIBODIES AND OTHER COMPOUNDS” (Biogen Idec MA Inc., priority 2008, published 2009).
Where two headings read alike, the source gives them in different places.

Assays:
[1] = target: T1, IGF-1R expressed on MCF-7 cells (Homo sapiens, UniProt P08069); assay: Flow cytometry binding to wild type IGF-1R on MCF-7 tumor cells
T1 construct: wild type IGF-1R expressed on MCF-7 tumor cells; endogenous in cells; host or cells: MCF-7
Procedure: The ability of Fabs to bind to the wild type IGF-1R was determined by flowcytometry using MCF-7 tumor cell line.
MCF-7 cells (Human Breast Adenocarcinoma from NCI) were split 24 hours prior to the setup of the assay to obtain 70% confluent monolayer. Routinely, MCF-7 cell line was maintained within 20 passages. Cells were lifted with cell dissociation buffer (Gibco catalog #13151-014), counted, washed and adjusted to 1×10^6 cells/ml and one ml of cells were then added to each tube (12×75 mm tube Falcon catalog# 352054). Cells were pelleted and supernatant removed by centrifugation at 1200 rpm for 5 min and 100 μl of diluted antibodies were then added to the cell pellet. Purified Fabs were tested at a starting concentration of either 210 or 60 μg/ml with 1:3 dilutions in FACS buffer, down to 0.001 μg/ml. FACS buffer used throughout the assay was PBS (without Ca++/Mg++) containing 1% BSA (Sigma catalog# A-7906; Sigma-Aldrich Corp. (St. Louis, Mo., USA)) and 0.1% Sodium Azide (Sigma catalog #S2002). As a positive control IR3 a murine antibody (Ab-1; Calbiochem #GR11L) was used. Samples were allowed to incubate on ice for 1 hour and 15 minutes then were washed with 2 ml FACS buffer and centrifuged at 1200 rpm for 5 minutes at 4° C. The supernatant was aspirated and 100 μl of the secondary detection antibody was added to each corresponding tube in FACS buffer. Samples were then incubated for 30 minutes on ice, in the dark. Cells were washed as described above, then, re-suspended in […] FACS buffer per tube/sample.
Cells were stained for live cell determination with Propidium Iodide staining solution (PI for dead cell exclusion; BD Pharmingen catalog# 51-66211E or 556463; use at 1:500 final in FACS buffer). […]
Once samples have been run and geometric means determined, antibody concentration (X axis) vs. geometric mean (Y axis) was graphed to the log 10, using Graphpad Prism (Prism Graph) graphing program. […]
The binding activity of human antibodies to wild type IGF-1R expressed on tumor cells was determined by flow cytometry. […]

[2] = target: T2, IGF-1R phosphorylation (Homo sapiens, UniProt P08069); assay: Inhibition of IGF-1 and IGF-2 mediated IGF-1R phosphorylation in MCF-7 cells (ELISA); assay type: cell-based; settings: for Inhibition of IGF-1R Phosphorylation IGF-1 / Inhibition of IGF-1R Phosphorylation IGF-2: Fabs, MCF-7; for Inhibition of IGF-1R Phosphorylation IGF-1: IGF-1 stimulated; for Inhibition of IGF-1R Phosphorylation IGF-2: IGF-2 stimulated; for Inhibition of IGF-1R.pTyr IGF-1 / Inhibition of IGF-1R.pTyr IGF-2: murine monoclonal antibodies
T2 construct: wild type IGF-1R expressed on MCF-7 tumor cells; endogenous in cells; host or cells: MCF-7
Procedure: Cell lines: IGF1R expressing human breast carcinoma cell line MCF-7 (NCI) were maintained at 37° C. and 5% CO2 in MEM eagle (ATCC) containing 10% FBS, 1× non-essential amino acids, 2 mM L-glutamine, 1 mM sodium pyruvate and 1000 U/ml penicillin and streptomycin. Cells were sub-cultured twice weekly for maintenance and assay, and used with a maximum of 12 passages.
MCF-7 cells were plated in 2 ml growth media at 2×10^5 to 4.0×10^5 cells/well in Ploy-D-Lysine coated 12 well plates (BD Biosciences, #35-6470) and cultured at 37° C., 5% CO2. At 48 hours, media removed and cells serum starved overnight at 37° C., 5% CO2 Serum free media was removed and control or test antibodies at indicated concentration were added in 350 ul of fresh serum free media and incubated for 1 hour at room temperature, or alternately at 37° C. Fabs were tested at 200 nM, 20 nM and 2 nM concentration and the mAbs were tested at 67, 6.7 and 0.67 nM. The commercial anti-IGF-1R control antibody used was αIR3 (EMD biosciences, Oncogene Research products, #D27249). […] Ligand was incubated at […] for 37° C. antibody experiments. Cells were lysed in 1× cell lysis buffer (Cell Signal Technologies, #9803) with 1 mM PMSF for 1 hour at room temperature.
Cell lysates were added to ELISA plates pre-coated with IGF-1Rp antibody (Clone 1-2, Biosource International, #AHR0361) and incubated for 2 hours. Following which plates were washed and the plate bound phosphorylated receptor was detected with the biotin labeled anti-phosphotyrosine antibody 4G10 (Catalog #16-103, Upstate Cell Signaling Solutions (Lake Placid, N.Y. (now part of Millipore, Concord, Mass. (USA)) and streptavidin-HRP (BD Pharmingen, #554066). Assay is developed by addition of TMB substrate (Kierkegaard & Perry, #50-76-00) and color stopped by addition of […] (LabChem, Cat#LC25830-1). Optical density is measured at 450 nm using a Molecular Devices plate reader and percent inhibition over the ligand control is calculated for each antibody-ligand sample.
The effect of human anti-IGF-1R antibodies on IGF-1R signaling was evaluated using MCF-7 cells (human breast adenocarcinoma cells).

[3] = murine monoclonal antibodies, read-out: Binding (EC50nM) Tumor MCF-7

B1: Fab M12-E01: human anti-human IGF-1R Fab from phage display library; VH SEQ ID NO:4, VL SEQ ID NO:68 (antibody, V domains shown)
VH: EVQLLESGGGLVQPGGSLRLSCAASGFTFSPYSMLWVRQAPGKGLEWVSSIGSSGGSTRYADSVKGRFTISRDNSKNTLYLQMNSLRAEDTAMYYCARVRGILHYDILIGRNLYYYYMDVWGKGTTVTVSS
VL: QYELTQPPSVSEAPRQRVTISCSGSSSNIGNNAINWYQQLPGKPPKLLIYYDDLLPSGVSDRFSGSKSGTSGSLAISGLQSEDEADYYCAAWDDNLNGVIFGGGTKLTVL
modifications: Antibody variable heavy chain sequence; Antibody variable light chain sequence
EC50 ([1]; purified Fabs, read-out: FACS Binding MCF-7 EC50nM): 7.4 nM
Inhibition of IGF-1R Phosphorylation IGF-1 [2]: ++ (>30%@1ug/ml)
Inhibition of IGF-1R Phosphorylation IGF-2 [2]: + (>30%@10 ug/ml)

B2: M14-C03: anti-IGF-1R antibody, allosteric blocker of IGF-1 and IGF-2 (antibody, V domains shown)
VH: EVQLLESGGGLVQPGGSLRLSCAASGFTFSKYMMSWVRQAPGKGLEWVSYISPSGGLTWYADSVKGRFTISRDNSKNTLYLQMNSLRAEDTAVYYCARDGARGYGMDVWGQGTTVTVSS
VL: DIQMTQSPATLSLSPGERATLSCRASQSVSSYLAWYQQKPGQAPRLLIYDASNRATGIPARFSGSGSGTDFTLTISSLEPEDFAVYYCQQRSNWPPEVTFGPGTKVDIK
modifications: Antibody variable heavy chain sequence; Antibody variable light chain sequence
Inhibition of IGF-1R Phosphorylation IGF-1 [2]: ++ (>30%@1ug/ml)
Inhibition of IGF-1R Phosphorylation IGF-2 [2]: ++ (>30%@1ug/ml)

B3: 20C8.3B8: murine anti-human IGF-1R monoclonal antibody from hybridoma; VH SEQ ID NO:43, VL SEQ ID NO:103 (antibody, V domains shown)
VH: DVQLQESGPDLVKPSQSLSLTCTVTGYSITSGYSWHWIRQFPGNKLEWMGYIHYSGGTNYNPSLKSRISITRDTSKNQFFLQLNSVTTEDTATYYCARSGYGYRSAYYFDYWGQGTTVTVSS
VL: DIVLTQSPASLAVSLGQRATISCRASKSVSTSAYSYMHWYQQKPGQPPKLLIYLASNLESGVPARFSGSGSGTDFTLNIHPVEEEDAATYYCQHSRELPYTFGGGTKLEIK
modifications: Antibody variable heavy chain sequence; Antibody variable light chain sequence
EC50 [1, 3]: 1.23 nM
Inhibition of IGF-1R.pTyr IGF-1 [2]: +++ (>30%@0.1 μg/ml)
Inhibition of IGF-1R.pTyr IGF-2 [2]: ++ (>30%@1 μg/ml)

B4: 20D8.24B11: murine anti-human IGF-1R monoclonal antibody from hybridoma; VH SEQ ID NO:53, VL SEQ ID NO:103 (antibody, V domains shown)
VH: DVQLQESGPDLVKPSQSLSLTCTVTGYSITSGYSWHWIRQFPGNKLEWMGYIHYSGGTNYNPSLKSRISITRDTSKNQFFLQLNSVTTEDTATYYCARSGYGYRSAYYFDYWGQGTTLTVSS
VL: DIVLTQSPASLAVSLGQRATISCRASKSVSTSAYSYMHWYQQKPGQPPKLLIYLASNLESGVPARFSGSGSGTDFTLNIHPVEEEDAATYYCQHSRELPYTFGGGTKLEIK
modifications: Antibody variable heavy chain sequence; Antibody variable light chain sequence
EC50 [1, 3]: 1.3 nM
Inhibition of IGF-1R.pTyr IGF-1 [2]: +++ (>30%@0.1 μg/ml)
Inhibition of IGF-1R.pTyr IGF-2 [2]: ++ (>30%@1 μg/ml)
